What was measured:
[1] = biological target: CD19/NKG2DL tandem CAR with a short hinge (12 amino acids) derived from CD8α (UniProt P26718); assay: flow cytometry on cells; CAR-transduced primary T-cells incubated with rhMICA-Avi (detected with Alexa Fluor 647 streptavidin) and/or rhCD19-Fc (detected with anti-human IgG-Fc antibody); MFI read in a subpopulation expressing the CD34 marker at similar level; one ligand alone or both together
[2] = biological target: CD19/NKG2DL tandem CAR with a short hinge (12 amino acids) derived from IgG4 (UniProt P26718); assay: as above

decrease of MICA binding against the NKG2DL single-targeting CAR [1]: 30%
decrease of MICA binding against the NKG2DL single-targeting CAR [2]: 30%
B1: recombinant human Biotinylated Human MICA Protein, His,Avitag (ligand)
chain: EPHSLRYNLTVLSWDGSVQSGFLTEVHLDGQPFLRCDRQKCRAKPQGQWAEDVLGNKTWDRETRDLTGNGKDLRMTLAHIKDQKEGLHSLQEIRVCEIHEDNSTRSSQHFYYDGELFLSQNLETKEWTMPQSSRAQTLAMNVRNFLKEDAMKTKTHYHAMHADCLQELRRYLKSGVVLRRTVPPMVNVTRSEASEGNITVTCRASGFYPWNITLSWRQDGVSLSHDTQQWGDVLPDGNGTYQTWVATRICQGEEQRFTCYMEHSGNHSTHPVPSGKVLVLQSHW
modifications: biotin (biotinylated protein)
